# Measured values from patent US20260250421A1.
# Legend:
# [1] = biological target: human PTK7 on human cancer cell lines (human) (UniProt Q13308); experiment: flow cytometry, PC-3 cells, isotype control
# [2] = biological target: human PTK7 on human cancer cell lines (human) (UniProt Q13308); experiment: flow cytometry, A-431 cells, isotype control
# [3] = biological target: human PTK7 on human cancer cell lines (human) (UniProt Q13308); experiment: flow cytometry, BT-20 cells, isotype control
# [4] = biological target: human PTK7 on human cancer cell lines (human) (UniProt Q13308); experiment: flow cytometry, HCT116 cells, isotype control
# [5] = biological target: human PTK7 on human cancer cell lines (human) (UniProt Q13308); experiment: flow cytometry, HCC1954 cells, isotype control
# [6] = biological target: human PTK7 on human cancer cell lines (human) (UniProt Q13308); experiment: flow cytometry, NCI-N87 cells, isotype control
# [7] = biological target: human PTK7 on human cancer cell lines (human) (UniProt Q13308); experiment: flow cytometry, SK-OV-3 cells, isotype control
# [8] = biological target: dog PTK7 on dog cancer cell lines (dog); experiment: flow cytometry, D-17 dog cells, isotype control
# [9] = biological target: human PTK7 on human cancer cell lines (human) (UniProt Q13308); experiment: flow cytometry, NCI-H226 cells, isotype control
# [10] = biological target: human PTK7 on human cancer cell lines (human) (UniProt Q13308); experiment: flow cytometry, NCI-H292 cells, isotype control
# [11] = biological target: human PTK7 on human cancer cell lines (human) (UniProt Q13308); experiment: flow cytometry, NCI-H358 cells, isotype control
# [12] = biological target: human PTK7 on human cancer cell lines (human) (UniProt Q13308); experiment: flow cytometry, NCI-H520 cells, isotype control
# [13] = biological target: dog PTK7 on dog cancer cell lines (dog); experiment: flow cytometry, CMT-U27 dog cells, isotype control
# Sequence of human PTK7 on human cancer cell lines (human) (Q13308 31-1070 limits assumed): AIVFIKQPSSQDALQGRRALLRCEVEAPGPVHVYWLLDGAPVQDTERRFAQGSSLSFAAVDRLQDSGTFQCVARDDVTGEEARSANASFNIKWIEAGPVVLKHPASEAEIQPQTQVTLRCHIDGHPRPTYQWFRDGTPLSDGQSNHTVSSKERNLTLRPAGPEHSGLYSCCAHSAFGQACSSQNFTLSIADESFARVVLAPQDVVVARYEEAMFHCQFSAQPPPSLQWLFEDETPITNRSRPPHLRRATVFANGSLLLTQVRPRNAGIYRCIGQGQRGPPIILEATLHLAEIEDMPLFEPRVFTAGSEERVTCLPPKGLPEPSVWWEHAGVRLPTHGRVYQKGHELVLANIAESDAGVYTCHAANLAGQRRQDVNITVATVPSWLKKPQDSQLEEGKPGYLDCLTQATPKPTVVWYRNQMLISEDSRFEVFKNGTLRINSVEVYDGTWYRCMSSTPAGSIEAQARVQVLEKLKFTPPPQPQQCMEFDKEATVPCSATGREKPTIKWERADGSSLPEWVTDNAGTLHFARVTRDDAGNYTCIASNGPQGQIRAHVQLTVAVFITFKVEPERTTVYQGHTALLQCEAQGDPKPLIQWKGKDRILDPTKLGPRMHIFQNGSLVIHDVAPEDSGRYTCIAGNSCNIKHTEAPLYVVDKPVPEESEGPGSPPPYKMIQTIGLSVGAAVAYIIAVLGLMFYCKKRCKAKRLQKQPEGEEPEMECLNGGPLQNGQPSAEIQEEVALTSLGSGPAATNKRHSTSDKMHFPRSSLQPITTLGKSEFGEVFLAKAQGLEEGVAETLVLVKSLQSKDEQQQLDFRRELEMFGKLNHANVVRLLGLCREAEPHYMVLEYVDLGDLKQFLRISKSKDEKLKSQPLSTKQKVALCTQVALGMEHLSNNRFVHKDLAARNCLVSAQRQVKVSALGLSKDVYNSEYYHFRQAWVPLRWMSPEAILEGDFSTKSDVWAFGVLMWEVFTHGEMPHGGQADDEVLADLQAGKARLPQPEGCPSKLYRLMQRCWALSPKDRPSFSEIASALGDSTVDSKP
substance,measurement,setting,value
Human IgG1 (ISO control) (antibody),MFI,[1],3690
same,MFI,[2],4630
same,MFI,[3],5920
same,MFI,[4],3110
same,MFI,[5],6340
same,MFI,[6],2850
same,MFI,[7],3860
same,MFI,[8],3520
same,MFI,[9],9840
same,MFI,[10],2230
same,MFI,[11],3360
same,MFI,[12],2420
same,MFI,[13],1650
